Experimental data: patent US20240342199

How the values were obtained:
[1] = molecular target: Recombinant CypD Ser31/Ser123→Ala double mutant, P30405
[2] = molecular target: Recombinant GST-CypD (wild type), P30405
[3] = molecular target: Recombinant CypD Ser123→Ala mutant, P30405
[4] = molecular target: Recombinant CypD Ser31→Ala mutant, P30405
Chain of Recombinant CypD Ser31→Ala mutant, P30405 (P30405 whole entry, looked up, change not shown): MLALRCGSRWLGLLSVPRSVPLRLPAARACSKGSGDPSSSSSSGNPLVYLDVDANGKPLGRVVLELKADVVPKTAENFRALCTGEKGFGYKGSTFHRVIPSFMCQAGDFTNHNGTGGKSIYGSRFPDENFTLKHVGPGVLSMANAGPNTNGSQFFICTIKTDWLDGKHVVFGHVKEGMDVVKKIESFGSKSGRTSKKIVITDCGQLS

Chain of Recombinant CypD Ser31/Ser123→Ala double mutant, P30405 (P30405 whole entry, looked up, change not shown): as above
Chain of Recombinant GST-CypD (wild type), P30405 (P30405 whole entry): as the sequence (P30405 whole entry, looked up, change not shown) above
Chain of Recombinant CypD Ser123→Ala mutant, P30405 (P30405 whole entry, looked up, change not shown): as above

B1: active Akt2 (protein)
chain: MNEVSVIKEGWLHKRGEYIKTWRPRYFLLKSDGSFIGYKERPEAPDQTLPPLNNFSVAECQLMKTERPRPNTFVIRCLQWTTVIERTFHVDSPDEREEWMRAIQMVANSLKQRAPGEDPMDYKCGSPSDSSTTEEMEVAVSKARAKVTMNDFDYLKLLGKGTFGKVILVREKATGRYYAMKILRKEVIIAKDEVAHTVTESRVLQNTRHPFLTALKYAFQTHDRLCFVMEYANGGELFFHLSRERVFTEERARFYGAEIVSALEYLHSRDVVYRDIKLENLMLDKDGHIKITDFGLCKEGISDGATMKTFCGTPEYLAPEVLEDNDYGRAVDWWGLGVVMYEMMCGRLPFYNQDHERLFELILMEEIRFPRTLSPEAKSLLAGLLKKDPKQRLGGGPSDAKEVMEHRFFLSINWQDVVQKKLLPPFKPQVTSEVDTRYFDDEFTAQSITITPPDRYDSLGLLELDQRTHFPQFSYSASIRE
[1]
  kinase assay with recombinant proteins, 32P-ATP, autoradiography: abolished Akt phosphorylation of CypD
[2]
  kinase assay with recombinant proteins, 32P-ATP, autoradiography: readily phosphorylated
[3]
  kinase assay with recombinant proteins, 32P-ATP, autoradiography: readily phosphorylated
[4]
  kinase assay with recombinant proteins, 32P-ATP, autoradiography: abolished Akt phosphorylation of CypD
